Results on one protein are retold here after article PMC8539922, “Reconstitution of Caveolin-1 into Artificial Lipid Membrane: Characterization by Transmission Electron Microscopy and Solid-State Nuclear Magnetic Resonance” (Molecules, 2021).

Where no end group is shown, it is not given here.

This data set deals with the molecule itself. Description: negative-stain TEM + thioflavin-T fluorescence; peptide dissolved in DMSO, diluted to 1 mg/mL in 20 mM Tris, pH 8.0, incubated at 37 °C for 48 h.

B1: CAV1(168-178) peptide (peptide)
peptide: SNVRINLQKEI
modifications: not fully specified
notes: Caveolin-1, residues 168-178 of the α-isoform; The ends of the two caps as printed seem swapped (a rink amide resin gives a C-terminal amide; acetyl is usually N-terminal); also called CAV1 C-terminal peptide; CAV1 C-terminus; source: synthetic peptide (Fmoc solid phase, HPLC purified)
Regarding B1, the binding result is “binds”.
